Like-named read-outs stand apart in the source and are kept apart here.

Series [1] deals with the molecule itself. The experiment in a line: crystal structure.
Series [2] deals with the molecule itself. The experiment in a line: crystal structure. The source holds these as a separate data set.

B1: human Hsp90α_293–699 (wild type Hsp90α middle/C-terminal domain) (domain or fragment)
chain: not shown
One may read the stoichiometry N as the number of molecules, sites or subunits per partner or assembly. B1: in series [1], the “stoichiometry N” value was 6.

B2: human Hsp90α_293–714_W320A mutant (domain or fragment)
chain: not shown
For B2, in series [2], the “stoichiometry N” value was 2.

Source of the values: publication PMC10183053 (Journal of biomolecular structure & dynamics, 2022).
